The assay deals with PS2 S-layer protein of Corynebacterium glutamicum 541 (ATCC-13058) (Corynebacterium glutamicum 541 (ATCC-13058)). Kind of assay: cryo-EM structure; single particle cryo-EM of S-layer sheets purified from cells with SDS; 50 mM HEPES/NaOH pH 7.5, 150 mM NaCl, 1 mM MgCl2, 2 mM CaCl2; C6 symmetry; 3.1 Å; lattices still intact after 10 mM EDTA or 10 mM EGTA for 2 h.

For orientation: stoichiometry N means the number of molecules, sites or subunits per partner or assembly.

Substance “PS2 S-layer protein of Corynebacterium glutamicum 541 (ATCC-13058) (natural protein)” showed a stoichiometry N of 6.

The values above are taken from paper PMC12021427.
